Assay results reported in US20260176354A1, “ANTIBODY BINDING TO CD22, AND BISPECIFIC ANTIBODY, CHIMERIC ANTIGEN RECEPTOR AND ANTIBODY-DRUG CONJUGATE COMPRISING SAME, AND USE THEREOF” (THE ASAN FOUNDATION, priority 2022, published 2026).
Where a chain is given by its changes, count along the chain named. One block for each molecule: values may come before it.

Assays:
[1] = molecular target: T1, human CD22-His protein (Sino Biological Inc.) (human, UniProt P20273 20-687); assay: ELISA, human CD22-His coated, anti-human IgG Fc-HRP detection
T1 construct: Bought protein coated on the ELISA plate (100 ng/well); not shown: His tag
T1 sequence (looked up): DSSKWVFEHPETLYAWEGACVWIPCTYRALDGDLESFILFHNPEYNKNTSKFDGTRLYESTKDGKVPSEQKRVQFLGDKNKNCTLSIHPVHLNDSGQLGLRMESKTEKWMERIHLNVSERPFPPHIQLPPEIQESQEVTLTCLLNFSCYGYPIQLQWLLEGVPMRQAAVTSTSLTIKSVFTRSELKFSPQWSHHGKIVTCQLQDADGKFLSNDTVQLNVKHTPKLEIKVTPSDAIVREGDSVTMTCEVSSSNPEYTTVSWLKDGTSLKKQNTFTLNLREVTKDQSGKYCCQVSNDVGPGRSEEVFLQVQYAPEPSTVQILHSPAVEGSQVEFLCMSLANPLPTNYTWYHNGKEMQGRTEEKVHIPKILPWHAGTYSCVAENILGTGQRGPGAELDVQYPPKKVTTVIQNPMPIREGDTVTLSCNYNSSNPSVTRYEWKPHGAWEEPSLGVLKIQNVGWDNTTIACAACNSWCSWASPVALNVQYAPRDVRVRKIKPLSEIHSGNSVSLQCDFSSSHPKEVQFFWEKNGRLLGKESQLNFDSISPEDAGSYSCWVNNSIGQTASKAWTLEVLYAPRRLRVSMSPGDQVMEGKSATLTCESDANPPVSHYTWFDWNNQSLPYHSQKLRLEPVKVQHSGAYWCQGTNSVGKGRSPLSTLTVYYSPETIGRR
Experimental: Microtiter plates (Corning Inc., MA, USA) were coated overnight at 4° C. with human CD22-His protein (100 ng/well, Sino Biological Inc., Beijing, China). The wells were blocked for 1 hour at 37° C. with 150 μl of 3% BSA (w/v) in PBS, after which serial dilutions of the IgG protein prepared in 3% BSA in PBS were added to each well. After incubation for 1.5 hours at 37° C., the plates were washed three times with PBST (PBS containing 0.05% Tween-20), followed by incubation for 1 hour at 37° C. with an HRP-conjugated anti-human IgG (Fc-specific) antibody (Thermo Fisher Scientific, USA). The plates were washed three times with PBST, and the amount of bound antibody was determined by adding 2,2′-azino-bis(3-ethylbenzothiazoline-6-sulfonic acid) (Thermo Fisher Scientific Inc., MA, USA). The resulting OD₄₀₅ was measured using a microplate spectrophotometer.

[2] = molecular target: T1, human CD22-His protein (Sino Biological …); assay: ELISA, human CD22-His coated, anti-human Cκ-HRP detection
Experimental: (§1) Microtiter plates (Corning Inc., MA, USA) were coated overnight at 4° C. with human CD22-His protein (100 ng/well, Sino Biological Inc., Beijing, China). The wells were blocked for 1 hour at 37° C. with 150 μl of 3% BSA (w/v) in PBS, and serial dilutions of the anti-CD22 scFv-Cκ-HA fusion protein, prepared in 3% BSA in PBS, were added to each well. After incubation for 1.5 hours at 37° C., the plates were washed three times with PBST (PBS containing 0.05% Tween-20), followed by incubation for 1 hour at 37° C. with an HRP-conjugated anti-human CK antibody (Millipore, CA, USA). The plates were washed three times with PBST, and the amount of bound antibody was determined by adding 2,2′-azino-bis(3-ethylbenzothiazoline-6-sulfonic acid) (Thermo Fisher Scientific Inc., MA, USA). The resulting OD₄₀₅ was measured using a microplate spectrophotometer.

[3] = molecular target: T2, human CD22-His protein (Homo sapiens, UniProt P20273); assay: ELISA analysis using anti-CD22 scFv-Cκ-HA fusion protein; format: binding; conditions: serial dilutions, coated human CD22-His 100 ng/well, FIG. 1
T2 construct: His; purchased Sino Biological Inc., Beijing, China
T2 sequence (P20273 20-847): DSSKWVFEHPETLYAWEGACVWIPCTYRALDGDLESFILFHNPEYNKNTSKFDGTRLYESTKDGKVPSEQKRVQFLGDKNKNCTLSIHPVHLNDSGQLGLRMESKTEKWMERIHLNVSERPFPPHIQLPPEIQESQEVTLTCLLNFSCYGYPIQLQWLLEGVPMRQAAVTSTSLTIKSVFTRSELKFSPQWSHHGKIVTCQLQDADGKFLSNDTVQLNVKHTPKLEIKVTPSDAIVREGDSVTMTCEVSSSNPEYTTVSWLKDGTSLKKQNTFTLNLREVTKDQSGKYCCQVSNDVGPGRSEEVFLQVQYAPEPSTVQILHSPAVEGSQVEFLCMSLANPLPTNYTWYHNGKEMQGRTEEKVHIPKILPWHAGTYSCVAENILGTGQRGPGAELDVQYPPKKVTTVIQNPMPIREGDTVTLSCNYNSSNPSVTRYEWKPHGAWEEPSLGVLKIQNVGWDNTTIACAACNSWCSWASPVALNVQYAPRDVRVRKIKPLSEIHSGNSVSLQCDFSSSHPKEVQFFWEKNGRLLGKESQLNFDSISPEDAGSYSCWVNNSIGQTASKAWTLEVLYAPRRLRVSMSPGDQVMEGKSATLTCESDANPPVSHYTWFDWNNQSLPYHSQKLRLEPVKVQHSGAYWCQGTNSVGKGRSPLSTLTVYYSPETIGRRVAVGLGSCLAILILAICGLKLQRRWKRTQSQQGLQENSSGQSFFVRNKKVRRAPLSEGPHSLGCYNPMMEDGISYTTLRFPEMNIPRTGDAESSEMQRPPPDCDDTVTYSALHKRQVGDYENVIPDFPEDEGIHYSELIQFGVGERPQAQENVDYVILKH
Experimental: as §1, with “OD405” for “OD₄₀₅”

[4] = test system: OCI-Ly7 cells; assay: Flow cytometry analysis using anti-CD22 scFv-Cκ-HA fusion protein; format: binding, human; conditions: scFv-Cκ-HA fusion protein 0.25 μM; FIG. 2
Experimental: OCI-Ly7 cells were aliquoted into 1.5 ml tubes at a density of 3×10^5 cells per tube. The anti-CD22 scFv-Cκ-HA fusion protein (0.25 μM) was added to each tube, followed by incubation on ice for 30 minutes. After washing twice with MACS buffer (Miltenyi Biotec), the cells were incubated with Alexa Fluor 647-labeled mouse anti-HA antibody (Clone #912426, R&D Systems, MN, USA) on ice for 30 minutes. Then, the cells were washed twice with MACS buffer, resuspended in 150 μL of 1% paraformaldehyde in MACS buffer, and stored overnight at 4° C. The cells were analyzed by flow cytometry using a FACS Canto II instrument (BD Bioscience, San Jose, CA, USA). For each sample, 10,000 cells were analyzed.

B1: anti-CD22 IgG protein CI4-47_8-1_H1-2-37 (antibody, V domains shown)
VH: EVQLLESGGGLVQPGGSLRLSCAASGFTFSRHGMYWVRQAPGKGLEWVSGIGSSGTGTYYGSAVRGRFTISRDNSKNTLYLQMNSLRAEDTAVYYCARDYGSDSGVGWGIYAGEIDAWGQGTLVTVSS
VL: LTQPPSVSVSPGQTARITCSGGSGGYGWYQQKPGSAPVSVIYDNDQRPSGIPERFSGSSSGTTVTLTISGVQAEDEADYYCGSYDSSYVGIFGGGTKLTVLR
binding result [1]: binds

B2: anti-CD22 IgG protein CI4-47_8-1 (antibody, V domains shown)
VH: B1 VH with R31N, H32Y, G33C, Y35S, V106C
VL: B1 VL
binding result [1]: binds

B4: recombinant anti-CD22 scFv-Cκ-HA fusion protein CI4-47 (scFv)
scFv: LTQPSSVSANPGETVKITCSGGSGGYGWYQQKSPGSAPVSLIYDNDQRPSDIPSRFSGSKSGSTGTLTITGVQADDEAVYYCGSYDSSYVGIFGAGTTLTVLGGGGSGGGGSGGGGSAVTLDESGGGLQTPGGALSLVCKASGFTFSNYCMQWVRQAPGKGLEWVAGIGSSGTGTYYGSAVRGRATISRDNGQSTVRLQLNNLRAEDTGTYYCARDYGSDSGCGWGIYAGEIDAWGHGTEVIVSSGGGGSGGGGSGGGGSRTVAAPSVFIFPPSDEQLKSGTASVVCLLNNFYPREAKVQWKVDNALQSGNSQESVTEQDSKDSTYSLSSTLTLSKADYEKHKVYACEVTHQGLSSPVTKSFNRGESGGAYPYDVPDYAS
notes: Chicken-derived scFv fused to a human constant kappa region and an HA tag; expressed in HEK293F cells, purified on KappaSelect; also called CI4-47 scFv-Cκ-HA
binding result [2]: binds

B5: CI4-47: recombinant anti-CD22 scFv-Cκ-HA fusion protein (protein)
scFv: B4 scFv
binding to CD22 (enzyme immunoassay, OD405) [3]: bind well
binding to OCI-Ly7 cells (flow cytometry) [4]: strong binding

B6: anti-CD22 IgG protein 2-3-14 (antibody, V domains shown)
VH: AVTLDESGGGLQTPGGGLSLVCKASGFSFSDYGMGWVRQAPGKGLEFVASISNTGSYTDYGAAVKGRATISRDNGQSTLRLQLNNLRAEDTGTYFCAKSAYGGSYGSSSIDAWGHGTEVIVSS
VL: LTQPSSVSANPGETVKITCSGSNNTYGWYQQKAPGSAPVTVIYDNTNRPSDIPSRFSGSKSGSTNTLTITGVQAEDEAVYFCGSRDSTYVGIFGAGTTLTVLR
notes: also called Feb; 3, 2014
binding result [1]: binds

Second part, the molecule after the results:

binding result [1]: binds
B3: anti-CD22 IgG protein CI4-47_8-1_H1-2-1 (antibody, V domains shown)
VH: B1 VH with R31K, M34H, V106I
VL: B1 VL

binding result [1]: binds
B7: anti-CD22 IgG protein 2-3-14_H1-24 (antibody, V domains shown)
VH: B6 VH with S28A, S30G, D31R, Y32S, G33S
VL: B6 VL

binding result [1]: binds
B8: anti-CD22 IgG protein 2-3-14_H2-40 (antibody, V domains shown)
VH: B6 VH with S50F, I51L, S52G, N53S, T54S, G55S
VL: B6 VL

binding result [2]: binds
B9: recombinant anti-CD22 scFv-Cκ-HA fusion protein 2-3-14 (scFv)
scFv: LTQPSSVSANPGETVKITCSGSNNTYGWYQQKAPGSAPVTVIYDNTNRPSDIPSRFSGSKSGSTNTLTITGVQAEDEAVYFCGSRDSTYVGIFGAGTTLTVLGGGGSGGGGSGGGGSAVTLDESGGGLQTPGGGLSLVCKASGFSFSDYGMGWVRQAPGKGLEFVASISNTGSYTDYGAAVKGRATISRDNGQSTLRLQLNNLRAEDTGTYFCAKSAYGGSYGSSSIDAWGHGTEVIVSSGGGGSGGGGSGGGGSRTVAAPSVFIFPPSDEQLKSGTASVVCLLNNFYPREAKVQWKVDNALQSGNSQESVTEQDSKDSTYSLSSTLTLSKADYEKHKVYACEVTHQGLSSPVTKSFNRGESGGAYPYDVPDYAS
notes: The text prints the clone name 2-3-14 as 'Feb; 3, 2014' in several paragraphs (date conversion artefact); also called Feb; 3, 2014; 2-3-14 scFv-Cκ-HA
